Experimental data as given in US20230331827A1, “POTASSIUM CHANNEL INHIBITORS” (priority 2017, published 2023).
Like-named read-outs stand apart in the source and are kept apart here.

What was measured:
[1] = test system: activated T cells in PBMCs; assay: Cytokine and Granzyme-B secretion by anti-CD3 activated PBMCs (Luminex); assay type: cell-based; settings: 100 nM, 72 hours, 5 donors, compared to KB_A12
Description: Methods for measuring cytokine release from T cells are well known to those skilled in the art (eg Tarcha et al, (2012) J Pharmacology and Experimental Therapeutics, 342 p642-653). Peripheral blood mononuclear cells (PBMCs) were isolated from 5 healthy donors and were simulated by culturing in 96-well plates pre-coated with 500 ng/ml of the anti-CD3 antibody OKT3 (ebioscience, Cat. No. 16-0037-85). PBMCs were suspended at 2 × 10^6 cells/ml and 100 ul of cells suspension mixed with 100 ul of test sample (KB_A12_ShK) or positive control (free ShK toxin, Alomone labs, STS-400) or negative control (parental KnotBody KB_A12) at a final concentration of 100 nM. (Samples were in triplicate for KB_A12_ShK or duplicate for KB_A12 and free ShK). Cells were incubated at 37° C. for 72 hours, centrifuged at 1500 rpm for 5 mins at room temperature before removing 150 ul of supernatant. After 72 hours incubation, the concentration of cytokines and Granzyme-B was determined using a Luminex bead based assay according to manufacturers instructions (Thermo Fisher).

human Kv1.3 (huKv1.3) = target: T1, human Kv1.3 (huKv1.3) (Homo sapiens, UniProt P22001); assay: QPatch automated patch-clamp, CHO cells stably expressing human Kv1.3 (Examples 19-21); assay type: cell-based
T1 construct: host or cells: CHO
Outline: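 Whole-cell currents were recorded in extracellular solution of 145 mM NaCl, 4 mM KCl, 2 mM CaCl2, 1 mM MgCl2, 10 mM HEPES, 10 mM glucose (pH 7.4), with a KF/KCl/EGTA pipette solution (pH 7.2). From -80 mV, +30 mV pulses of 300 ms were applied every 10 s, with four ascending KnotBody concentrations added extracellularly. Peak outward current was averaged (n = 3-6) and IC50 fitted from concentration-response curves.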

T1 sequence (P22001 whole entry): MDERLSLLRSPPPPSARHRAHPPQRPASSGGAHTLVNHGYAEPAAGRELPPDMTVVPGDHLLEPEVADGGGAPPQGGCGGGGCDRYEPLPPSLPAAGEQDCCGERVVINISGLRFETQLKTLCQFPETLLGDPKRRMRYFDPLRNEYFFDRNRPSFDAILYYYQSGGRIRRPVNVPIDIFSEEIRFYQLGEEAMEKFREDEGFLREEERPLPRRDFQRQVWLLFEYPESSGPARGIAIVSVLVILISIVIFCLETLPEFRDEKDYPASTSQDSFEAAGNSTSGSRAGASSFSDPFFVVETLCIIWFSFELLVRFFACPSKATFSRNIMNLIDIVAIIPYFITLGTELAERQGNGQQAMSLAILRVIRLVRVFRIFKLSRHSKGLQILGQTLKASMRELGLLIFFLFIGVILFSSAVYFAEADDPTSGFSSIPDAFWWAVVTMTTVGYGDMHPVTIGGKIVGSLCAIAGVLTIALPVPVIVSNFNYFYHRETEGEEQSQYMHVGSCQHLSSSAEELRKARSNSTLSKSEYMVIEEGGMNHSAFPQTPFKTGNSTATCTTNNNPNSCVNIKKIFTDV

B1: KB_A12_ShK: ShK toxin in VL CDR2 of KB_A12, IgG1 (antibody, V domains shown)
VH: EVQLVESGGGLVRPGGSLRLSCAASGFTFSSYAMSWVRQAPGKGLEWVSAISGSGGSTYYADSVKGRFTISRDNTKNSLYLQMTSLRADDTAFYYCVKDFGPGYGTGWFDYWGPGTLVTVSS
VL: QSVLTQPPSVSEAPRQRVTITCSGSSSNIGNNAVNWYQQLPGKAPKLLIYAAGRRSCIDTIPKSRCTAFQCKHSMKYRLSFCRKTCGTCANSGVSDRFSAAKSGTSASLAINGLRSEDEADYYCAAWDDSLNGYVFGTGTKLTVLG
Secretion of Granzyme B [1]: reduced
Secretion of Interferon gamma [1]: reduced
Secretion of TNF-alpha [1]: reduced
Secretion of interleukin-17A [1]: reduced
Fold difference (human Kv1.3 (huKv1.3); Kv1.1 IC50 over Kv1.3 IC50, Table E20): 3
IC50 (human Kv1.3 (huKv1.3); four-point curves of FIG. 33, Table E20, read-out: Kv1.3 IC50): 0.013 µM
IC50 (human Kv1.3 (huKv1.3); huKv1.3, four-point curves of FIG. 32, Table E19, read-out: IC50): 0.0086 µM
